Numbering of substitutions follows the chain as printed.
Target: Primate CGRP (primate (macaque))
Test: ELISA, primate CGRP binding

Sequence of Primate CGRP (primate (macaque)) (P06881 83-119): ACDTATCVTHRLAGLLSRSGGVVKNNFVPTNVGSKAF

B1: murine mAb 24G7B10G2 (antibody, mouse IgG2a, V domains shown)
VH: EVQLLQSGPELMKPGTSVKISCKASGYTFTDYYMNWVKQSHGKSLEWIGDVNPNNGDTTYNQKFKGKATLTIDKSSSTAYMELRSLTSEDSAVYYCASITIVPLYFDFWGQGTTLAVSS
VL: DIVMTQSQKFMSTSVGDRVSVTCKASQNVGINVAWYQQKPGQSPKALLYSASYRYSGVPDRFTGSGSGTDFTLTISNVKSGDLAEYFCQQYNTYPYTFGGGTKLEIK
  EC50: 0.072 nM

B2: murine mAb 30B8G9B11 (antibody, mouse IgG2a, V domains shown)
VH: B1 VH with L5Q, M12V, T16A, D57G, T59H, I72V, L104V, A116T
VL: B1 VL with I31P, Q37R, L48I, K79Q, G81E, E85D, F87I, T93Y
  EC50: 0.07 nM

B3: murine mAb 6G5C8C4 (antibody, mouse IgG2a, V domains shown)
VH: EVQLQQSGPELVKPGASVKISCKASGYTFTDYYMNWVKQSHGKSLEWIGDINPNNGGTTYNQKFKGKATLTVDKSSTTAYMELRSLTSEDSAVYYCAVITIVPYYFDYWGQGTTLTVSS
VL: DIVMTQSQKFMSTSVGDRVSVTCKASQNVGSNVAWYQQKPGQSPKALIYSASFRYSRVPDRFSGSGSGTDFTLTISNVQSEDLADYFCQQYNSYPYTFGAGTKLELK
  EC50: 0.101 nM

— patent US20200407433A1
